Experimental data: paper PMC2831313 (Nucleic Acids Research, 2009)

Target: N-biotinylated HapB (Aspergillus nidulans, biotin (N-biotinylated))
Assay: SPR

B1: HapC/HapE heterodimer (wild-type HapC) (complex)
chain 1: MSSTSPSKEPEVEQEPQSGEEHEQMDKEQDNQTQGQGEFEVKEQDRWLPIANVARIMKLALPENAKIAKEAKECMQECVSEFISFITSEASEKCQQEKRKTVNGEDILFAMTSLGFENYAEALKIYLSKYRETQSARGEHQNRPPSSGYAGGGPVGGAASGPSVVRAGGAAAGGAFPEASDNAGSIMNQGLDPSEQDASAYGYPPMVGQGHNGAGGESY
chain 2: MEQAQQTSGQQQGRQQPVYDTRQGGHYGASAALAAQGFAPVAELYTGTWANVNQGLQGTARDILTTYWQHVINHLESDNHDYKIHQLPLARIKKVMKADPEVKMISAEAPILFAKGCDVFITELTMRAWIHAEDNKRRTLQRSDIAAALSKSDMFDFLIDIVPREEATSHAKRSSQSAGAPAGPGGPTAAGQLPQTQHGVQHHPHHMAPPDYGALGQHPLQDQEYRQQTMYGGAVQSDPTAAYAQPQTQMFEGMYTAYPHLPPQQ
With B1 the Kd was 0.0353 µM.
